Test results from patent publication US20100081792A1 (published 2010).

Experiments:
human VEGF = molecular target: T1, human VEGF (human, UniProt P15692-4 27-191); assay: receptor binding assay, dAb cross-linked by anti-Myc tag antibody
T1 construct: also called VEGF165

mouse VEGF = molecular target: T2, mouse VEGF (mouse, UniProt Q00731-2 27-190, limits assumed); assay: as above
T2 sequence (looked up): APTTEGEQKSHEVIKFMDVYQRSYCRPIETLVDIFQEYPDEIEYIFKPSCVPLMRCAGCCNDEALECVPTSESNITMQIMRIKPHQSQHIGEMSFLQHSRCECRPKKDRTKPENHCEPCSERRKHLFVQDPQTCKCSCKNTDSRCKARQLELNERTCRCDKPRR

- IC50 (human VEGF): 3 nM
- IC50 (mouse VEGF): 10 nM
B1: TAR15-26 (other)
VH: EVQLLESGGGLVQPGGSLRLSCAASGFTFGAYPMMWVRQAPGKGLEWVSEISPSGSYTYYADSVKGRFTISRDNSKNTLYLQMNSLRAEDTAVYYCAKDPRKFDYWGQGTLVTVSS
notes: VH dAb; carries a Myc tag in the cross-linked assay
